Patent US20020028202A1 (Biogen, published 2002)

What was measured:
Assay in all cases: staining of transfected COS-7 cells, FACS
[1] = biological target: T1, human gc chain mutant, VEY replaced by Ala (Domain 1 Loop AB), myc-tagged, on COS-7 cells (human, UniProt P31785 23-369)
T1 construct: whole, on cells; not shown: 9 amino acid myc tag at the 5' end of the construct
T1 sequence (looked up): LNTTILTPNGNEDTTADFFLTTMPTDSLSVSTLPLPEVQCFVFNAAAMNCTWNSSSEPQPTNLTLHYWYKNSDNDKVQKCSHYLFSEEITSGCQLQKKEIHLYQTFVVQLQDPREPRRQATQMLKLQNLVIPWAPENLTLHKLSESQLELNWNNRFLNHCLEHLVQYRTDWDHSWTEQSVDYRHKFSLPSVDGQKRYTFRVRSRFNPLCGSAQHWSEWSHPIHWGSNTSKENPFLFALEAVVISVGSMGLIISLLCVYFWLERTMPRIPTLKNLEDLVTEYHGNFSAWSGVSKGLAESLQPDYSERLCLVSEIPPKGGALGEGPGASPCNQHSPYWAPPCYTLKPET

[2] = biological target: T2, human gc chain mutant, LYQ replaced by Ala (Domain 1 Loop EF), myc-tagged, on COS-7 cells (human, UniProt P31785 23-369)
T2 construct: whole, on cells; not shown: 9 amino acid myc tag at the 5' end of the construct
T2 sequence (looked up): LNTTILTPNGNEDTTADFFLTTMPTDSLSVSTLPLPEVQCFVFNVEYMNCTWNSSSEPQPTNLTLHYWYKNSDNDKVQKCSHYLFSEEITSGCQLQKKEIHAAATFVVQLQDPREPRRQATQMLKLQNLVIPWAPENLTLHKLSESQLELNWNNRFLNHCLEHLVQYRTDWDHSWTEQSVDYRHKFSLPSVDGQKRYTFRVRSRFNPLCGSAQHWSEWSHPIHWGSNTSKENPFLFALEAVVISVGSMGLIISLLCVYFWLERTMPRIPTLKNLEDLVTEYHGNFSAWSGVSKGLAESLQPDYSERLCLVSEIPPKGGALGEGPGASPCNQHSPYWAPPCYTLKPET

[3] = biological target: T3, human gc chain mutant, ESQ replaced by Ala (Domain 2 Loop AB), myc-tagged, on COS-7 cells (human, UniProt P31785 23-369)
T3 construct: whole, on cells; not shown: 9 amino acid myc tag at the 5' end of the construct
T3 sequence (looked up): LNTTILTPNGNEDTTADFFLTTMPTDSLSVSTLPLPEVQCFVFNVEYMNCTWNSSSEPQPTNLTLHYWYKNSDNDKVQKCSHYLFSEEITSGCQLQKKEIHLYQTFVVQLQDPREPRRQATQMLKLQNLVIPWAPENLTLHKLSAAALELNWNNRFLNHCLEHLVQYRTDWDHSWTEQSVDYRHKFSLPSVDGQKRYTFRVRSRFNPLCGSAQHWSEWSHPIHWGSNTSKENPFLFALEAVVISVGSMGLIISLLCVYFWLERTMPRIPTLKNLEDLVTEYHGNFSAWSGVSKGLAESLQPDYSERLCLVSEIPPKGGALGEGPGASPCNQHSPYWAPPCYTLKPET

% binding to mutant gc chain/wildtype gc chain [1]: 0%
% binding to mutant gc chain/wildtype gc chain [2]: 13%
% binding to mutant gc chain/wildtype gc chain [3]: 75%
B1: CP.B8 monoclonal antibody (murine anti-human gc chain, hybridoma ATCC HB-12107) (antibody, V domains shown)
VH: LQESGPGLVAPSQSLSITCTVSGFSLTSYGVHWVRQPPGKGLEWLGVIWAGGSTNYNSALMSRLNINRDNSKSQIFLKMNSLQTDDTAIYYCAREGSTVDSMDYWGQGTTVT
VL: DIVMTQSHKFMSTSVGDSITITCKASQDVTTAVAWYQQKPGQSPKLLIYWASTRHTGVPDRFTGSGSGTDYTLTISSVQAEDLALYYCQQHYITPWTFGGGTKLEI
notes: Used unconjugated and biotin-conjugated; also called CP.B8 mAb; mAb CP.B8
